One experiment concerns the target HLA-A*66:01. The experiment can be described thus: IEDB peptide-MHC binding, purified MHC/competitive/fluorescence; filed as Kd, often an IC50 or EC50 that approximates it; ≥ and ≤ were set here for values at or beyond the usual limits of such assays. Conditions: source organism: Listeria monocytogenes J0161.
The target in the next experiment is HLA-B*08:01. The experiment is described as above. Conditions: source organism: Listeria monocytogenes J0161.
Another experiment has as its target HLA-B*44:02. The description is as above. Conditions: source organism: Listeria monocytogenes J0161.
The target in a further experiment is HLA-B*07:02. Described as above. Conditions: source organism: Listeria monocytogenes J0161.
In the next experiment the target is HLA-A*01:01. The experiment is described as above. Conditions: source organism: Listeria monocytogenes J0161.
The next experiment addresses HLA-B*58:01. The description is as above. Conditions: source organism: Listeria monocytogenes J0161.
The target of the next experiment is HLA-B*53:01. The experiment is described as above. Conditions: source organism: Listeria monocytogenes J0161.
The target in experiment [1] is HLA-A*24:03. Described as above. Conditions: source organism: Listeria monocytogenes J0161.
In the next experiment the target is HLA-A*11:01. The description is as above. Conditions: source organism: Listeria monocytogenes J0161.
The next experiment addresses HLA-B*40:01. The description is as above. Conditions: source organism: Listeria monocytogenes J0161.
The next experiment addresses HLA-B*27:05. Described as above. Conditions: source organism: Listeria monocytogenes J0161.
In a further experiment the target is HLA-B*14:02. The experiment is described as above. Conditions: source organism: Listeria monocytogenes J0161.
Another experiment addresses HLA-A*30:01. The description is as above. Conditions: source organism: Listeria monocytogenes J0161.
For the next experiment, the target named is HLA-A*26:01. The experiment can be described thus: IEDB peptide-MHC binding, purified MHC/direct/fluorescence; filed as Kd, often an IC50 or EC50 that approximates it; ≥ and ≤ were set here for values at or beyond the usual limits of such assays.
A further experiment deals with HLA-A*29:02. Described as above.
Another experiment deals with HLA-A*03:01. The description is as above.
Another experiment deals with HLA-A*02:12. The experiment is described as above.
Another experiment addresses HLA-A*02:19. Described as above.
Another experiment deals with HLA-B*51:01. The description is as above.
The target of another experiment is HLA-B*27:03. The description is as above.
The target in a further experiment is HLA-A*02:01. Described as above.
In the next experiment the target is HLA-A*02:03. The experiment is described as above.
The next experiment deals with HLA-B*57:01. The description is as above.
The target of the next experiment is HLA-B*18:01. The experiment is described as above.
For another experiment, the target named is HLA-A*23:01. The description is as above. Conditions: source organism: Listeria monocytogenes serotype 4b str. H7858.
A further experiment addresses HLA-B*39:01. The experiment is described as above.
The next experiment deals with HLA-A*02:06. The description is as above.
The target of a further experiment is HLA-A*69:01. The experiment is described as above.
For a further experiment, the target named is HLA-A*02:50. The experiment can be described thus: IEDB peptide-MHC binding, purified MHC/competitive/fluorescence; filed as Kd, often an IC50 or EC50 that approximates it; ≥ and ≤ were set here for values at or beyond the usual limits of such assays. Conditions: source organism: Vibrio vulnificus YJ016.
In the next experiment the target is HLA-A*02:16. The experiment can be described thus: IEDB peptide-MHC binding, purified MHC/direct/fluorescence; filed as Kd, often an IC50 or EC50 that approximates it; ≥ and ≤ were set here for values at or beyond the usual limits of such assays.
A further experiment addresses HLA-A*02:11. The experiment is described as above.
The next experiment concerns the target HLA-B*46:01. The experiment is described as above. Conditions: source organism: Escherichia coli O157:H7 str. EC869.
The target in experiment [2] is HLA-A*24:03. The experiment is described as above. Conditions: source organism: Escherichia coli O157:H7 str. EC869.
Another experiment concerns the target HLA-B*15:17. The description is as above. Conditions: source organism: Escherichia coli O157:H7 str. EC869.
The mark [3] stands for this setting: source organism: Listeria monocytogenes serotype 4b str. H7858.
The mark [4] stands for this setting: source organism: Vibrio vulnificus CMCP6.
[5] abbreviates: source organism: Vibrio vulnificus.
The mark [6] stands for this setting: source organism: Escherichia coli O157:H7 str. EC869.

A word on the Kd: it is a measure of binding affinity in units of concentration. AALEGLSGF: the dissociation constant (Kd) with HLA-A*66:01, in the experiment with HLA-B*08:01, with HLA-B*44:02, with HLA-B*07:02, in the experiment with HLA-A*01:01 and with HLA-B*58:01 was not below 5 µM each time. Moreover, the equilibrium dissociation constant (Kd) was not below 5 µM with HLA-B*53:01; 0.771 µM in the experiment with HLA-A*24:03 [1]; not below 5 µM in the experiment with HLA-A*11:01; not below 5 µM with HLA-B*40:01; not below 5 µM in the experiment with HLA-B*27:05; not below 5 µM in the experiment with HLA-B*14:02. Moreover, the dissociation constant Kd with HLA-A*30:01 is not below 5 µM; with HLA-A*26:01 (setting [3]), not below 20 µM; with HLA-A*29:02 (setting [3]), 0.542 µM; in the experiment with HLA-A*03:01 (setting [3]), not below 20 µM; with HLA-A*02:12 (setting [3]), not below 20 µM; in the experiment with HLA-A*02:19 (setting [3]) it was not below 20 µM. Moreover, the equilibrium dissociation constant (Kd) with HLA-B*51:01 (setting [3]) was not below 20 µM; in the experiment with HLA-B*27:03 (setting [3]), not below 20 µM; with HLA-A*02:01 (setting [3]), 1.9 µM; with HLA-A*02:03 (setting [3]), not below 20 µM; in the experiment with HLA-B*57:01 (setting [3]) it was not below 20 µM; with HLA-B*18:01 (setting [3]), not below 20 µM. The Kd in the experiment with HLA-A*23:01 was 0.622 µM; with HLA-B*39:01 (setting [3]), not below 20 µM; with HLA-A*02:06 (setting [3]), 1.92 µM; in the experiment with HLA-A*69:01 (setting [3]), not below 20 µM.

Regarding QLAFTYCQV, the dissociation constant Kd with HLA-A*02:50 was not above 0.0001 µM; with HLA-A*02:16 (setting [4]), 0.021 µM; with HLA-A*02:01 (setting [5]), 0.567 µM; in the experiment with HLA-A*02:11 (setting [4]), 0.002 µM; with HLA-A*69:01 (setting [5]) it was 0.153 µM.

On to SQFNHWFGE, for which the Kd in the experiment with HLA-A*26:01 (setting [6]), in the experiment with HLA-A*29:02 (setting [6]), with HLA-A*03:01 (setting [6]), with HLA-A*02:16 (setting [6]), with HLA-A*02:12 (setting [6]) and in the experiment with HLA-A*02:19 (setting [6]) was not below 20 µM each time. Besides, the Kd with HLA-B*46:01, in the experiment with HLA-B*51:01 (setting [6]), in the experiment with HLA-B*27:03 (setting [6]), with HLA-A*24:03 [2], in the experiment with HLA-A*02:01 (setting [6]) and in the experiment with HLA-A*02:03 (setting [6]) was not below 20 µM each time. The Kd was not below 20 µM with HLA-B*57:01 (setting [6]); not below 20 µM in the experiment with HLA-B*18:01 (setting [6]); not below 20 µM in the experiment with HLA-A*02:11 (setting [6]); not below 20 µM in the experiment with HLA-B*39:01 (setting [6]); not below 20 µM in the experiment with HLA-B*15:17; 0.086 µM with HLA-A*02:06 (setting [6]).

Values taken from the Immune Epitope Database (IEDB).
